The text below walks through data of patent US20170044545.

By IC50 is commonly meant the concentration needed to halve the response being measured.

In the data set the target is Autotaxin (ENPP2, NPP2) (Homo sapiens) (UniProt Q13822). The data set can be described thus: inhibition. The following applies: 2'-F pyrimidines, 2'-OH purines.

Bounds are passed on as bounds.

As to “CGGAUACGUCUCACUUCGUCNNNNNNNNNNNNNNNNNNNNNNNNNNNNNNCAGAGCGUUUAGAGUGCGGUCCC [30N RNA pool]”, the IC50 was > 1000 nM. “GUACGAAGACGCAUCUCACNNNNNNNNNNNNNNNNNNNNNNNNNNNNNNNNNNNNNNNNGUUCCAUGUCCUGUUGCCACCC [40N RNA pool]”: the IC50 was > 1000 nM.
